Measured values as given in patent US20100234287A1, “Targeting Bacterial Suicide Pathways for the Development of Novel Antibiotics” (UNIVERSITY OF MEDICINE AND DENTISTRY OF NEW JERSEY, priority 2006, published 2010).
d = 2'-deoxy (DNA); r = 2'-OH (RNA)

How the values were obtained:
wild type yeast cells = type: cell-based
MazF = MazF (Escherichia coli, UniProt P0A850+P0AE70)
[1] = target: T1, MazF, His-tagged at the C-terminal end (E. coli K12, UniProt P0AE70 1-111); assay: Ni-NTA purification of the complex via the His-tagged toxin
T1 construct: not shown: C-terminal His tag from pET21
T1 sequence (looked up): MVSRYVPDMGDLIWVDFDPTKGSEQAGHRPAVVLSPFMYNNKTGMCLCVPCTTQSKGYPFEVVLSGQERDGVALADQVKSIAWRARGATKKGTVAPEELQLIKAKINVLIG

E. coli = type: cell-based
[2] = target: T2, HipA, His-tagged at the C-terminal end (E. coli K12, UniProt P23874 1-440); assay: Ni-NTA purification of the complex via the His-tagged toxin
T2 construct: not shown: C-terminal His tag from pET21
T2 sequence (looked up): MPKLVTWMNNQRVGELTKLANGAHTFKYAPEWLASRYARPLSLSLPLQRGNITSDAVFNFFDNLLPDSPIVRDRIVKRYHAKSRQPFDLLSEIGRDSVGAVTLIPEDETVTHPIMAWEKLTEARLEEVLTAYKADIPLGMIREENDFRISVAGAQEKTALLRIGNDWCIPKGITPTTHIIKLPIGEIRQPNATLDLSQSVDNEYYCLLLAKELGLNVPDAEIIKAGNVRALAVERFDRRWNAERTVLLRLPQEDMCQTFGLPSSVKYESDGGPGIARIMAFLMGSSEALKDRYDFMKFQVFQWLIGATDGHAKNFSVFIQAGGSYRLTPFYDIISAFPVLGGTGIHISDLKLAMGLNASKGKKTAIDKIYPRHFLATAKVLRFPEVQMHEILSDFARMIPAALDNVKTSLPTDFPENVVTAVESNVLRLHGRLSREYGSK

E. coli cells [3] = type: cell-based; conditions: arabinose-inducible pBAD vector
[4] = tested on: translation initiation complex; assay: Toeprinting assay on a translation initiation complex (mazG mRNA fragment, 70S ribosomes); type: biochemical, E. coli; conditions: only in the presence of ribosomes
ompA and ompF mRNAs = type: cell-based, E. coli; conditions: 2-h induction of YoeB with arabinose
lpp mRNA = type: cell-based, E. coli
YdcE = target: T3, YdcE (B. subtilis, UniProt P96622 1-116); assay: purification of the toxin-antitoxin complex
T3 construct: also called MazF homologue from B. subtilis
T3 sequence (looked up): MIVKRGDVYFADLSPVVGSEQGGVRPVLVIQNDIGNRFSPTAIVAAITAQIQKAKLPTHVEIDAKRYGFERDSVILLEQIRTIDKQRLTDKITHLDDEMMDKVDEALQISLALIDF

[5] = target: T4, ChpBK, His-tagged at the C-terminal end (E. coli K12, UniProt P33647 1-116); assay: Ni-NTA purification of the complex via the His-tagged toxin
T4 construct: not shown: C-terminal His tag from pET21
T4 sequence (looked up): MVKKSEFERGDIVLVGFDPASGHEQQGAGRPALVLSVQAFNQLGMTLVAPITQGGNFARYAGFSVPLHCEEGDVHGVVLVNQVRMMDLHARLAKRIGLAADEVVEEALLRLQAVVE

[6] = target: T5, YafQ with His6 tag at the carboxy terminus (E. coli K12, UniProt Q47149 1-92); assay: affinity chromatography, co-purification via His6-tagged YafQ
T5 construct: not shown: C-terminal His6 tag from the pET vector
T5 sequence (looked up): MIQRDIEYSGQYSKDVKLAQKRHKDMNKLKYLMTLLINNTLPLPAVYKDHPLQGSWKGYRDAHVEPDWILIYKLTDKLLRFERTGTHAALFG

[7] = target: T6, RelE, His-tagged at the C-terminal end (E. coli K12, UniProt P0C077 1-95); assay: Ni-NTA purification of the complex via the His-tagged toxin
T6 construct: not shown: C-terminal His tag from pET21
T6 sequence (looked up): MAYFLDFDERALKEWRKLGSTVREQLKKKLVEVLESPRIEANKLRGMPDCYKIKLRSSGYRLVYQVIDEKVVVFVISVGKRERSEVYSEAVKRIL

[8] = tested on: cellular mRNAs (ompA, tufA, ompF) and polysomes; assay: Northern blot and polysome pattern after Doc induction (pBAD, arabinose)
E. coli cells [9] = conditions: MazF induction (Zhang et al., 2003b); cited from earlier work

In the case of “RelE: E. coli toxin, ribosome-associating factor that stimulates ribosomal endo-ribonuclease activity”, the “toxicity / growth inhibition in yeast” value (wild type yeast cells) is reported as “prokaryote-specific growth inhibitors”.

In the case of dGdAdTdArUdAdCdAdTdAdTdG [CBS-1], the “function as substrate for MazF” value (MazF; MazF fused to trigger factor, 37° C., pilot experiment) is reported as “suitable and sensitive substrate”.

With “dGdAdTdArUrArCdGdTdAdTdG (GATAUACGTATG; sugars from the 5' end d4 r3 d5, backbone not given here) [CBS-2]” the “cleavage by MazF” value (MazF; substrate not yet synthesized) was “not by MazF”.

B1: MazE (other, E. coli K12, UniProt P0AE72 1-82, looked up)
chain: MIHSSVKRWGNSPAVRIPATLMQALNLNIDDEVKIDLVDGKLIIEPVRKEPVFTLAELVNDITPENLHENIDWGEPKDKEVW
notes: also called MazE antitoxin
B1: binds [1].

B2: YafQ: E. coli toxin of the YafQ-DinJ TA system, sequence-specific MIase (protein)
chain: T5 sequence (looked up)
modifications: left off: small tags and cut ends
In the case of B2, the “toxicity / growth inhibition in E. coli” value (E. coli) is reported as “growth inhibitor” and the “toxicity / growth inhibition in yeast” value (wild type yeast cells) is reported as “growth inhibitor”.

B3: HipB (other, E. coli K12, UniProt P23873 1-88, looked up)
chain: MMSFQKIYSPTQLANAMKLVRQQNGWTQSELAKKIGIKQATISNFENNPDNTTLTTFFKILQSLELSMTLCDAKNASPESTEQQNLEW
notes: also called HipB antitoxin
B3: binds [2].

B4: YoeB: E. coli toxin of the YoeB-YefM TA system, 50S ribosome associating protein (protein)
chain: MKLIWSEESWDDYLYWQETDKRIVKKINELIKDTRRTPFEGKGKPEPLKHNLSGFWSRRITEEHRLVYAVTDDSLLIAACRYHY
modifications: left off: small tags and cut ends
notes: E. coli toxin of the YoeB-YefM TA system, 50S ribosome associating protein
With B4 the “time after induction until cellular protein synthesis is almost completely inhibited” value (E. coli cells [3]) was ≤ 5 min, the “shift of the toeprint band upstream of the normal toeprinting band” value [4] was 11 bases and the “toxicity / growth inhibition in yeast” value (wild type yeast cells) was “not toxic”. The “position of primer extension block downstream of the initiation codon, ompA mRNA” value (ompA and ompF mRNAs) was 3 bases, the “position of primer extension block downstream of the initiation codon, ompF mRNA” value (ompA and ompF mRNAs) was 6 bases and the “time after induction at which a substantial amount of full-length lpp mRNA is still present” value (lpp mRNA) was “more than 1 h”.

B5: YdcD (other, B. subtilis, UniProt P96621 1-93, looked up)
chain: MSESSARTEMKISLPENLVAELDGVAMREKRSRNELISQAVRAYVSERTTRHNRDLMRRGYMEMAKINLNISSEAHFAECEAETTVERLVSGG
notes: also called YdcD antitoxin
B5: binds (YdcE).

B6: ChpBI (other, E. coli K12, UniProt P08365 1-83, looked up)
chain: MRITIKRWGNSAGMVIPNIVMKELNLQPGQSVEAQVSNNQLILTPISRRYSLDELLAQCDMNAAELSEQDVWGKSTPAGDEIW
notes: also called ChpBI antitoxin
B6: binds [5].

B7: DinJ (other, E. coli K12, UniProt Q47150 1-86, looked up)
chain: MAANAFVRARIDEDLKNQAADVLAGMGLTISDLVRITLTKVAREKALPFDLREPNQLTIQSIKNSEAGIDVHKAKDADDLFDKLGI
notes: Co-expressed with YafQ from a pET vector; the His6 tag was added only to YafQ; also called DinJ antitoxin
B7: binds [6].

B8: RelB (other, E. coli K12, UniProt P0C079 1-79, looked up)
chain: MGSINLRIDDELKARSYAALEKMGVTPSEALRLMLEYIADNERLPFKQTLLSDEDAELVEIVKERLRNPKPVRVTLDEL
notes: also called RelB antitoxin
B8: binds [7].

B9: Doc: toxin of the Doc-Phd TA operon from phage P1 (protein)
chain: MRHISPEELIALHDANISRYGGLPGMSDPGRAEAIIGRVQARVAYEEITDLFEVSATYLVATARGHIFNDANKRTALNSALLFLRRNGVQVFDSPELADLTVGAATGEISVSSVADTLRRLYGSAE
modifications: left off: small tags and cut ends
In the case of B9, the “degradation of cellular mRNAs” value ([8]; 120 min after induction) is reported as “not degraded” and the polysome pattern ([8]; after 2 h induction, without addition of hygromycin) is reported as “did not change”.

B10: MazF: E. coli toxin, sequence-specific (ACA) endoribonuclease, mRNA interferase (protein)
chain: T1 sequence (looked up)
modifications: left off: small tags and cut ends
In the case of B10, the “time after induction until full-length lpp mRNA disappears” value (lpp mRNA) is given as ≤ 5 min and the “time after induction until cellular protein synthesis is inhibited” value (E. coli cells [9]) is given as 15 to 20 min.
